Reference: the RNAGym collection of RNA variant scans (doi:10.7554/elife.90254)

B1: LINE1-mini (parent)
chain: GGCAGAGCUCAACACAGCGUGGCAAAGUGGCUGUGGCUAGACUGCC

Variants of: B1
Assay: self-cleavage, relative activity (ratio to wild type); higher = more cleavage; in vitro, sequencing; the parent is a self-cleaving ribozyme

| Variant | self-cleavage |
| --- | --- |
| A14U A24C | 0.15 |
| C13U G33C | 0.06 |
| C13U G33A | 0.07 |
| G27U U34G | 0.26 |
| G1C U32C | 0.03 |
| G2C U32C | 0.08 |
| G29U G35A | 0.32 |
| A6U U28C | 0.74 |
| G19U U38A | 0.38 |
| A16G U28C | 0.44 |
| A24G U32A | 0.14 |
| C10U A41U | 0.16 |
| A25G G29U | 1.14 |
| A14C G27U | 0.09 |
| G30U G35U | 0.08 |
| G1A G36C | 0.11 |
| G29U C31G | 0.13 |
| A24C A39C | 1.1 |
| G30A U34G | 0.11 |
| G17U G33C | 0.02 |
| A6U U38C | 0.27 |
| A6G A24C | 0.13 |
| U28C C46U | 0.51 |
| A12U A39C | 0.11 |

| Variant | self-cleavage |
| --- | --- |
| A12G G27C | 0.03 |
| G7C C46G | 0.08 |
| G21U U32G | 0.26 |
| C13U A24U | 0.16 |
| A12G U34G | 0.02 |
| A4G A14C | 0.12 |
| A11G G19A | 0.04 |
| G36U A39U | 0.07 |
| A16U G22A | 0.42 |
| C8G U34C | 0.04 |
| U20G A26C | 0.47 |
| G27C | 0.72 |
| G22A G36C | 0.13 |
| C23G G30A | 1.88 |
| A16G U38C | 0.18 |
| C15U U43A | 0.14 |
| C13G G44A | 0.12 |
| C13G G44C | 0.05 |
| G5C A16U | 0.04 |
| A16U A25G | 0.07 |
| G29U U38A | 0.4 |
| G29C G33C | 0.1 |
| U20C C46G | 0.47 |
| A11G U43C | 0.02 |

| Variant | self-cleavage |
| --- | --- |
| G2A U43G | 0.14 |
| G7A U32G | 0.11 |
| G17A G21U | 0.83 |
| G1U A41C | 0.05 |
| C13G C46G | 0.19 |
| U20C U43A | 0.05 |
| A12C C13G | 0.04 |
| A14G C42G | 0.04 |
| A24U A39G | 0.14 |
| A24U G40A | 0.14 |
| G7U U38C | 0.05 |
| C3U G33U | 0.1 |
| A4G G40C | 0.1 |
| G1A U32C | 0.11 |
| A6G C46G | 0.08 |
| C3A U20G | 0.31 |
| A12G C42G | 0.02 |
| G19C G40U | 0.08 |
| C42A C46A | 0.2 |
| G29A G33A | 0.12 |
| G5U U38A | 0.08 |
| C15G U32G | 0.04 |
| G7U A26G | 0.05 |
| C10G G29U | 0.08 |

| Variant | self-cleavage |
| --- | --- |
| C13U C37U | 0.11 |
| A25U U28C | 1.19 |
| A14U C45G | 0.07 |
| C13A U28C | 0.15 |
| G5A C8A | 0.27 |
| G27C U32G | 0.08 |
| U9C A16C | 0.02 |
| A16C A26C | 0.04 |
| A25G U32C | 0.06 |
| G2A G7A | 0.86 |
| U38G C46A | 0.02 |
| G7C A41U | 0.21 |
| A16U G40C | 0.05 |
| C18G G21U | 1.38 |
| G2C G36C | 0.04 |
| A4G G44U | 0.16 |
| G1C C10A | 0.02 |
| A6U A24C | 1.21 |
| C10A G30C | 0.08 |
| G27U G44U | 0.37 |
| A24C G40A | 0.07 |
| G7A G21C | 0.12 |
| C3A G27A | 0.31 |
| G7U G27C | 0.1 |

| Variant | self-cleavage |
| --- | --- |
| C3G C18G | 0.15 |
| C13G G27C | 0.08 |
| C8G U28A | 0.05 |
| U9G A41C | 0.04 |
| C18A G30U | 1.55 |
| G30A G40C | 0.16 |
| U20A C42G | 0.04 |
| A12G G29C | 0.02 |
| C3A A26U | 0.49 |
| G17U G29A | 0.43 |
| G5U G27A | 0.06 |
| U34C G36U | 0.06 |
| A6U A12C | 0.04 |
| C10A G40U | 0.03 |
| G35C C45G | 0.03 |
| A16C U28A | 0.18 |
| U32G G40A | 0.05 |
| G7C G44U | 0.15 |
| C23A A24C | 0.85 |
| C37A U38G | 0.03 |
| G7A U43A | 0.15 |
| G1U C45U | 0.38 |
| A25C G29U | 1.19 |
| C15G G29C | 0.1 |

| Variant | self-cleavage |
| --- | --- |
| C37U C46U | 0.06 |
| G17U C46U | 0.16 |
| U32G G36U | 0.1 |
| A14G G44C | 0.19 |
| C15U C37A | 0.11 |
| C8U G21C | 0.25 |
| A25C G35C | 0.1 |
| A26U C31G | 0.08 |
| A11C C13A | 0.03 |
| U9G C10G | 0.02 |
| A6G C42A | 0.12 |
| G35U U43A | 0.15 |
| U9A G33U | 0.07 |
| A41G C45U | 0.49 |
| C8G G27A | 0.17 |
| C13U C31G | 0.08 |
| C13G U34C | 0.1 |
| C8G A14C | 0.11 |
| G21U C31A | 0.19 |
| C15A A41C | 0.15 |
| A11C A12U | 0.03 |
| G36A C42G | 0.07 |
| G30C U32G | 0.3 |
| G2U | 0.09 |

| Variant | self-cleavage |
| --- | --- |
| A4G C37A | 0.06 |
| C13A U43G | 0.18 |
| U20G C42A | 0.1 |
| C3G C23G | 0.2 |
| G17A C46U | 0.15 |
| C45A | 0.64 |
| C15G G22A | 0.15 |
| G22C G40C | 0.08 |
| G5U A11U | 0.04 |
| A14C U38A | 0.21 |
| C13A A24G | 0.11 |
| A6G U32C | 0.07 |
| A24U | 1.42 |
| G7C A24C | 0.09 |
| U20A G21C | 0.39 |
| A25G G30A | 0.97 |
| C31A G40C | 0.04 |
| G21A G30A | 1.73 |
| G19U C45A | 0.43 |
| G7C U34A | 0.05 |
| C10A G22A | 0.05 |
| G22C C37A | 0.09 |
| A4U C42A | 0.11 |
